One block for each molecule: values may come before it.
Columns and labels:
[1] = molecular target: His6-ChpT (Caulobacter crescentus); assay: SEC
[2] = molecular target: His6-ChpT-A41R (Caulobacter crescentus); assay: SEC
[3] = molecular target: His6-ChpT-D47A (Caulobacter crescentus); assay: SEC
[4] = molecular target: His6-ChpT-D60A (Caulobacter crescentus); assay: SEC
[5] = molecular target: His6-ChpT-G45R (Caulobacter crescentus); assay: SEC
[6] = molecular target: His6-ChpT-L48M (Caulobacter crescentus); assay: SEC
[7] = molecular target: His6-ChpT-L64D (Caulobacter crescentus); assay: SEC
[8] = molecular target: His6-ChpT-N63R (Caulobacter crescentus); assay: SEC
[9] = molecular target: His6-ChpT-S40V (Caulobacter crescentus); assay: SEC
[10] = molecular target: His6-ChpT-S44Y (Caulobacter crescentus); assay: SEC
[11] = molecular target: His6-ChpT-A41R (Caulobacter crescentus); assay: SPR

Molecule: His6-ChpT-D47A (natural protein)
- stoichiometry N [3]: 2

Molecule: His6-ChpT-G45R (natural protein)
- stoichiometry N [5]: 2

Molecule: His6-ChpT-L48M (natural protein)
- stoichiometry N [6]: 2

Molecule: His6-ChpT-N63R (natural protein)
- stoichiometry N [8]: 2

Molecule: His6-ChpT-S44Y (natural protein)
- stoichiometry N [10]: 2

B1: CckA receiver domain (CckA-RD, amino acids 571–691) (domain or fragment)
chain: GRILFVEDEDAVRSVAARLLRARGYEVLEAADGEEALIIAEENAGTIDLLISDVIMPGIDGPTLLKKARGYLGTAPVMFISGYAEAEFSDLLEGETGVTFLPKPIDIKTLAERVKQQLQAA
- Kd [11]: 397 µM

Further lines, results first:

- stoichiometry N [1]: 2
Molecule: His6-ChpT (natural protein)

- stoichiometry N [2]: 2
Molecule: His6-ChpT-A41R (natural protein)

- stoichiometry N [4]: 2
Molecule: His6-ChpT-D60A (natural protein)

- stoichiometry N [7]: 2
Molecule: His6-ChpT-L64D (natural protein)

- stoichiometry N [9]: 2
Molecule: His6-ChpT-S40V (natural protein)

— article PMC3787845
